Reference: US20220072094A1

Target: PLCγ1 (mouse, endogenous, hippocampus) (mouse) (UniProt Q62077)
Assay: cell-based or functional assay

decrease in pY783 PLCγ1 immunoreactivity in hippocampal synaptic membranes, trkB^PLC/PLC against trkB^WT/WT after normal saline (Western blot): 38%
pY783 PLCγ1 immunoreactivity in hippocampal synaptic membranes after status epilepticus, trkB^WT/WT over trkB^PLC/PLC (Western blot): 1.84 fold
Substance: TrkB Y816F (mouse, trkB PLC/PLC knock-in) (from UniProt P15209 32-821) (receptor)
